Experimental findings from PMC11788743, “Biochemical characterization of the human ubiquitous glucose‐6‐phosphatase in neutrophil granulocytes” (FEBS Open Bio, 2024) are described below.

Substrate in series [1]: O=C(O)[C@H](O)[C@@H](O)[C@H](O)[C@H](O)COP(=O)(O)O
In words: inorganic phosphate release (molybdate), Michaelis-Menten fit, GFP control subtracted. In kind it is biochemical, Homo sapiens. The settings on record: 50 mM Mops pH 6.5, 25 mM CaCl2, 0.5 mM MnCl2, 2.5 mM EDTA, 37 °C, alamethicin, apparent, cell lysate.

Substrate in series [2]: O=P(O)(O)OC[C@@H](O)[C@@H](O)[C@H](O)[C@@H](O)CO
The description is as above. In kind it is biochemical, Homo sapiens. Particulars: 50 mM Mops pH 6.5, 25 mM CaCl2, 0.5 mM MnCl2, 2.5 mM EDTA, 37 °C, alamethicin, apparent, cell lysate.

B1: human recombinant G6PC3 (glucose-6-phosphatase-β) (Homo sapiens) (protein)
chain: MESTLGAGIVIAEALQNQLAWLENVWLWITFLGDPKILFLFYFPAAYYASRRVGIAVLWISLITEWLNLIFKWFLFGDRPFWWVHESGYYSQAPAQVHQFPSSCETGPGSPSGHCMITGAALWPIMTALSSQVATRARSRWVRVMPSLAYCTFLLAVGLSRIFILAHFPHQVLAGLITGAVLGWLMTPRVPMERELSFYGLTALALMLGTSLIYWTLFTLGLDLSWSISLAFKWCERPEWIHVDSRPFASLSRDSGAALGLGIALHSPCYAQVRRAQLGNGQKIACLVLAMGLLGPLDWLGHPPQISLFYIFNFLKYTLWPCLVLALVPWAVHMFSAQEAPPIHSS
notes: full-length G6PC3 cDNA (universal human cDNA) in pEGFP-N1 (XhoI/EcoRI), GFP-G6PC3 fusion, overexpressed in HEK293T; alamethicin-permeabilized cell lysate
As usually defined, the Km is the concentration of substrate that gives half-maximal velocity. A word on the Vmax: it is the rate approached at saturating substrate. For B1, in series [1], the Km was 8.22 ± 1.4 mM and the Vmax amounted to 0.19 µmol/min/mg. In addition, in series [2], the Km was 5.11 ± 0.7 mM and the Vmax was 1.66 µmol/min/mg.
